Results as given in US20250320292A1 (PANDION OPERATIONS, published 2025).

Assays:
recROBO2 = assay: cell-based or functional assay
Mouse Robo2 [1] = molecular target: T1, Mouse Robo2 (mouse, UniProt Q7TPD3 22-863, limits assumed); assay: BLI (Octet RED96); CDAB1 captured on anti-human Fc biosensor, mouse Robo2 titrated two-fold from 50 nM
T1 construct: also called mRobo2
T1 sequence: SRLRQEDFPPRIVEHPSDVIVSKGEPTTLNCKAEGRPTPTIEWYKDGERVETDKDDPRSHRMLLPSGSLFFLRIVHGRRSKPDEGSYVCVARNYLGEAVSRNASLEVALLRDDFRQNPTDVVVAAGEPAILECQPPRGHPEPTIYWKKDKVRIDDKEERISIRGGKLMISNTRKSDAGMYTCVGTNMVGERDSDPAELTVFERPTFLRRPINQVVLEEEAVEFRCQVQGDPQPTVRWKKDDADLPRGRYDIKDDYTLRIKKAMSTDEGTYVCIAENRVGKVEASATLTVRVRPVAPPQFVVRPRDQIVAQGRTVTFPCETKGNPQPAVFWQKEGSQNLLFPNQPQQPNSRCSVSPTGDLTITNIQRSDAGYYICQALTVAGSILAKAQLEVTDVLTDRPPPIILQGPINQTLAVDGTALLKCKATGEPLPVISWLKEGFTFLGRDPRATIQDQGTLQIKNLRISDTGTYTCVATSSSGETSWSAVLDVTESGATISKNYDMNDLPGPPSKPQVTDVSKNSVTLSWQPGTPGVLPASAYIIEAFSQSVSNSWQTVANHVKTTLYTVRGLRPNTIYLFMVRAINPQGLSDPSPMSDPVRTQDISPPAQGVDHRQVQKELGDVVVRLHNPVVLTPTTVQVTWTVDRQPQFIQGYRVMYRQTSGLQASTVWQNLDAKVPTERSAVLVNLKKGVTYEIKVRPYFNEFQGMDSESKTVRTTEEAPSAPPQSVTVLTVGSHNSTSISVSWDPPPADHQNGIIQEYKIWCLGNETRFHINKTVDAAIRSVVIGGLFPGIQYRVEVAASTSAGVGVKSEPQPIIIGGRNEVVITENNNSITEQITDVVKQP
Procedure: (§1) Anti-human Fc (for CDAB1, CDAB5, Fc-rat COL4A3) or anti-Streptavidin (for CDAB3) or HIS1K (COL4A3-His) biosensors were equilibrated in assay buffer (1% BSA in 1×PBS with 0.05% Tween-20) for 10 minutes before the experiment was setup. Immobilizing reagents were diluted to 4 μg/mL in assay buffer and 200 μL pipetted to 96 well plate. Mouse Robo2 or TAs were titrated down, two-fold dilutions (starting at 50 nM as the highest concentration, 7-point dilution). The experiment was conducted using data acquisition software version 10.0 for OCTET96 RED. Test articles were captured using anti-human Fc biosensors for 180 s. Biosensors loaded with test articles were then equilibrated in assay buffer for 120 s. Association was performed in wells with mRobo2 or TA for 180 seconds. Dissociation was performed in wells with assay buffer for 180 s.

Mouse Robo2 [2] = molecular target: T1, Mouse Robo2; assay: BLI (Octet RED96); test article captured on biosensor (method names CDAB5 on anti-human Fc, result names CDAB6), mouse Robo2 titrated from 50 nM
Procedure: as §1

Mouse Robo2 [3] = molecular target: T1, Mouse Robo2; assay: BLI (Octet RED96); CDAB3 on anti-Streptavidin biosensor, mouse Robo2 titrated two-fold from 50 nM
Procedure: as §1

recROBO2, sequence (Q9HCK4 whole entry): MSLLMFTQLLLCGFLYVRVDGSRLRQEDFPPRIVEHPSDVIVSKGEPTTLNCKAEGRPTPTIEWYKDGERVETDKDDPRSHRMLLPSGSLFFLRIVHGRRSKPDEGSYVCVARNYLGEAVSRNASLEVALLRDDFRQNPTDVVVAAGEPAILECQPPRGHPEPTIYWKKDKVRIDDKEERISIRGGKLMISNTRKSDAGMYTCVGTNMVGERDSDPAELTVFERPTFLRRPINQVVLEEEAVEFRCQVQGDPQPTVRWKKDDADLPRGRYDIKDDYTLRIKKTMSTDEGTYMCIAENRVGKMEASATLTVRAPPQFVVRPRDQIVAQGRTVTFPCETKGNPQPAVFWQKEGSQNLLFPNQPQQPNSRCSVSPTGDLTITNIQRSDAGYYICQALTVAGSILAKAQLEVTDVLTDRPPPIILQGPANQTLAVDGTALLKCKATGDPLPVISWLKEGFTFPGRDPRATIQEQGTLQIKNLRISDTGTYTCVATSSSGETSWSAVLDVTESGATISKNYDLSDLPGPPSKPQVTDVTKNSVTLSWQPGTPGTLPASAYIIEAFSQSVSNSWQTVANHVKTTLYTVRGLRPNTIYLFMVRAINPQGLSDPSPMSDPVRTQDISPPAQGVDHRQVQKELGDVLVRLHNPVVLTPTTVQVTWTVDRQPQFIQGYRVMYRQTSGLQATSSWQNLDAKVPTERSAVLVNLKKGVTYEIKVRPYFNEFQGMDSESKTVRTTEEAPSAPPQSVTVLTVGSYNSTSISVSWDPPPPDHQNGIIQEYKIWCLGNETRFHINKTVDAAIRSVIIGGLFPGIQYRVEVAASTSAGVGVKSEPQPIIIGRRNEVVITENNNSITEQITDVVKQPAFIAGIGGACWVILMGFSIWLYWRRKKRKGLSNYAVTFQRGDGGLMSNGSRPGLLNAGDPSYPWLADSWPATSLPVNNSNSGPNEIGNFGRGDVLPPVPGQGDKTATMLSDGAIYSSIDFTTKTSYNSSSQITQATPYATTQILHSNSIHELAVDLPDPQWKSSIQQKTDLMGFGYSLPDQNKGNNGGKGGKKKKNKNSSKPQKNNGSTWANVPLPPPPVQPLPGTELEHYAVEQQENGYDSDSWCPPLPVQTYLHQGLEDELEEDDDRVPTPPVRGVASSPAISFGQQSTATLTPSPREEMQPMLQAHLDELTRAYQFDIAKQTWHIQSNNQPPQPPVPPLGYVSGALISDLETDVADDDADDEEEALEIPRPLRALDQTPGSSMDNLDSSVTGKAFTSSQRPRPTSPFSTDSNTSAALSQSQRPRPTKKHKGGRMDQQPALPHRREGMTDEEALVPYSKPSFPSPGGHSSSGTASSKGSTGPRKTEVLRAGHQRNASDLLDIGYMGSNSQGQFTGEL

B1: CDAB1 (antibody, human IgG1, kappa)
heavy: EVQLVQSGAEVKKPGASVKVSCKASGYTFTGYYMHWVRQAPGQGLEWMGWINPKNGDTEFPQKFQGRVTMTRDTSITTAYMDLSRLRSDDTAVYYCARESGDDAFDIWGQGTMVTVSSASTKGPSVFPLAPSSKSTSGGTAALGCLVKDYFPEPVTVSWNSGALTSGVHTFPAVLQSSGLYSLSSVVTVPSSSLGTQTYICNVNHKPSNTKVDKKVEPKSCDKTHTCPPCPAPEAAGAPSVFLFPPKPKDTLMISRTPEVTCVVVDVSHEDPEVKFNWYVDGVEVHNAKTKPREEQYNSTYRVVSVLTVLHQDWLNGKEYKCKVSNKALPAPIEKTISKAKGQPREPQVYTLPPSREEMTKNQVSLTCLVKGFYPSDIAVEWESNGQPENNYKTTPPVLDSDGSFFLYSKLTVDKSRWQQGNVFSCSVMHEALHNHYTQKSLSLSPGGGGGSDCGPPPDIPNARPILGRHSKFAEQSKVAYSCNNGFKQVPDKSNIVVCLENGQWSSHETFCEKSCVAPERLSFASLKKEYLNMNFFPVGTIVEYECRPGFRKQPPLPGKATCLEDLVWSPVAQFCKKKSCPNPKDLDNGHINIPTGILFGSEINFSCNPGYRLVGVSSTFCSVTGNTVDWDDEFPVCTEIHCPEPPKINNGIMRGESDSYTYSQVVTYSCDKGFILVGNASIYCTVSKSDVGQWSSPPPRCIEKSKVPTKKPTINVPSTGTPSTPQKPTTESVPNPGDQPTPQKPSTVKVSATQHVPVTKTTVRHPIRTSTDKGEPNTG
light: DIVMTQSPSSLSASVGDRVTITCRASQSISSYLNWYQQKPGKAPKLLIYAASSLQSGVPSRFSGSGSGTDFTLTISSLQPEDFATYYCQQSVGLFFGGGTKVEIKRTVAAPSVFIFPPSDEQLKSGTASVVCLLNNFYPREAKVQWKVDNALQSGNSQESVTEQDSKDSTYSLSSTLTLSKADYEKHKVYACEVTHQGLSSPVTKSFNRGEC
notes: Anti-ROBO2 tether in IgG1 format with mouse CD55 ECD fused to the C-terminus of the heavy chain; also called CDAB1-HC; CDAB1-LC
tethered IC50(nM), inhibition of C5b-9a deposition (Hycult classical complement mouse assay, tethered format) (recROBO2): 1.5 nM | Kd (Mouse Robo2 [1]): 1.38 nM | koff (Mouse Robo2 [1]): 0.00129 s⁻¹ | kon (Mouse Robo2 [1]): 938000 M⁻¹ s⁻¹

B2: CDAB6 (Fc fusion)
chain: DCGPPPDIPNARPILGRHSKFAEQSKVAYSCNNGFKQVPDKSNIVVCLENGQWSSHETFCEKSCVAPERLSFASLKKEYLNMNFFPVGTIVEYECRPGFRKQPPLPGKATCLEDLVWSPVAQFCKKKSCPNPKDLDNGHINIPTGILFGSEINFSCNPGYRLVGVSSTFCSVTGNTVDWDDEFPVCTEIHCPEPPKINNGIMRGESDSYTYSQVVTYSCDKGFILVGNASIYCTVSKSDVGQWSSPPPRCIEKSKVPTKKPTINVPSTGTPSTPQKPTTESVPNPGDQPTPQKPSTVKVSATQHVPVTKTTVRHPIRTSTDKGEPNTGGGGGSGGGGSGGGGSGGGGSDKTHTCPPCPAPEAAGAPSVFLFPPKPKDTLMISRTPEVTCVVVDVSHEDPEVKFNWYVDGVEVHNAKTKPREEQYNSTYRVVSVLTVLHQDWLNGKEYKCKVSNKALPAPIEKTISKAKGQPREPQVYTLPPSREEMTKNQVSLTCLVKGFYPSDIAVEWESNGQPENNYKTTPPVLDSDGSFFLYSKLTVDKSRWQQGNVFSCSVMHEALHNHYTQKSLSLSPGGGGGSGGGGSGGGGSGGGGSEVQLVQSGAEVKKPGASVKVSCKASGYTFTGYYMHWVRQAPGQGLEWMGWINPKNGDTEFPQKFQGRVTMTRDTSITTAYMDLSRLRSDDTAVYYCARESGDDAFDIWGQGTMVTVSSGGGGGSGGGGSGGGGSDIVMTQSPSSLSASVGDRVTITCRASQSISSYLNWYQQKPGKAPKLLIYAASSLQSGVPSRFSGSGSGTDFTLTISSLQPEDFATYYCQQSVGLFFGGGTKVEIK
notes: Same V domains as CDAB1
Kd (Mouse Robo2 [2]): 7.13 nM | koff (Mouse Robo2 [2]): 0.00294 s⁻¹ | kon (Mouse Robo2 [2]): 412000 M⁻¹ s⁻¹

B3: CDAB3 (scFv)
chain: DCGPPPDIPNARPILGRHSKFAEQSKVAYSCNNGFKQVPDKSNIVVCLENGQWSSHETFCEKSCVAPERLSFASLKKEYLNMNFFPVGTIVEYECRPGFRKQPPLPGKATCLEDLVWSPVAQFCKKKSCPNPKDLDNGHINIPTGILFGSEINFSCNPGYRLVGVSSTFCSVTGNTVDWDDEFPVCTEIHCPEPPKINNGIMRGESDSYTYSQVVTYSCDKGFILVGNASIYCTVSKSDVGQWSSPPPRCIEKSKVPTKKPTINVPSTGTPSTPQKPTTESVPNPGDQPTPQKPSTVKVSATQHVPVTKTTVRHPIRTSTDKGEPNTGGGGGSGGGGSGGGGSGGGGSEVQLVQSGAEVKKPGASVKVSCKASGYTFTGYYMHWVRQAPGQGLEWMGWINPKNGDTEFPQKFQGRVTMTRDTSITTAYMDLSRLRSDDTAVYYCARESGDDAFDIWGQGTMVTVSSGGGGGSGGGGSGGGGSDIVMTQSPSSLSASVGDRVTITCRASQSISSYLNWYQQKPGKAPKLLIYAASSLQSGVPSRFSGSGSGTDFTLTISSLQPEDFATYYCQQSVGLFFGGGTKVEIKHHHHHH
notes: Fc-less construct with the same V domains as CDAB1; It was loaded on 'anti-Streptavidin' biosensors, and no biotinylation is described
Kd (Mouse Robo2 [3]): 13.2 nM | koff (Mouse Robo2 [3]): 0.00291 s⁻¹ | kon (Mouse Robo2 [3]): 221000 M⁻¹ s⁻¹
